Here are results for two molecules from patent US20260209291A1 (KAMINO, published 2026).

For assay [1], the target named is TNFα (Tumor Necrosis Factor alpha) (UniProt P01375 77-233). The assay can be described thus: SPR (Biacore 3000, 25 °C): compound captured to about 1,000 RU on a CM5 chip with the mouse antibody capture kit, TNFα injected for 120 s, 300 s dissociation; negative control. How it is done: (§1) Surface plasmon resonance (SPR) experiments were carried out on a Biacore 3000 (Cytiva). A CM5 chip for capture of the compounds was prepared according to the instructions of the mouse antibody capture kit (Cytiva, #BR100838). VGFR(½)-mFc-FSD1, TNFR2-mFc-FSD1, VGFR(½)/FST291-mFc, TNFR2/FST291-mFc, VGFR(½)-hFc (Aflibercept), TNFR2-hFc (Etanercept), and FST315dHBS-mFc (SEQ ID NO: 30, SEQ ID NO: 31) were captured to approximately 1,000 RU (Resonance Units). TNFα (R&D Systems, #210-TA-005,) or VEGF (R&D Systems, #293-VE-010) were then injected for 120 s followed by a 300 s dissociation phase. At the end of each binding cycle, non-covalently attached molecules were removed from both surfaces by a 180 s regeneration with 10 mM glycine, pH 1.7. All proteins were diluted in running buffer ([…], pH 7.5, […], 2 mM CaCl₂) and 0.05% Tween 20). A flow rate of 30 μl/min was used in all steps of the experiments. Binding analysis was performed at 25° C., and data were collected at a rate of 1 Hz. Using the BIAevaluation 4.1.1 software (Cytiva), recorded signals were referenced; the signal from the in-line reference flow cell was subtracted as was the signal from a blank run (0 nM analyte).
Background: Surface plasmon resonance follows binding to a sensor surface in real time, without labels.

The target in another assay is T1, myostatin (Homo sapiens (Human), UniProt O14793 267-375).
T1 sequence: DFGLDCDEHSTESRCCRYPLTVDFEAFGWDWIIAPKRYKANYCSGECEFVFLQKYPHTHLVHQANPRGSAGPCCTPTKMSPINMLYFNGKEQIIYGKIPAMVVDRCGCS
The experiment in a line: cell-based or functional assay.

The target of a further assay is T2, activin A (human, UniProt P08476 311-426).
T2 sequence: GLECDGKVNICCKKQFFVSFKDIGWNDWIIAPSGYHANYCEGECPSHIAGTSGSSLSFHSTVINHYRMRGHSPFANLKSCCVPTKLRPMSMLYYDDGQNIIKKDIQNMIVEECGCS
The experiment in a line: cell-based or functional assay.

Assay [2] has as its target VEGF (Vascular Endothelial Growth Factor) (UniProt P15692-4 27-191). The experiment in a line: SPR (Biacore 3000, 25 °C): compound captured to about 1,000 RU on a CM5 chip with the mouse antibody capture kit, VEGF injected for 120 s, 300 s dissociation; negative control. How it is done: as §1
Assay [3] deals with T3, GDF11 (Growth Differentiation Factor 11) (Homo sapiens (Human), UniProt O95390 299-407).
T3 sequence: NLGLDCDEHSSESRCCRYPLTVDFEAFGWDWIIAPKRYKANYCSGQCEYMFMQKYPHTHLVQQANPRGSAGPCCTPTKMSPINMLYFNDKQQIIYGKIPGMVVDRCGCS
The experiment in a line: cell-based or functional assay.

The target in assay [4] is T4, vimentin (endogenous, in HEK293 cells) (human (HEK293 cells), UniProt P08670 2-466).
T4 construct: whole, on cells; Intracellular filament protein, inside the cells and not on their surface
The assay can be described thus: confocal imaging of adherent HEK293 cells after 18 hours with 1 µM ATTO 488 labelled compound; the filing reads the filaments as vimentin; no vimentin co-stain on the sheet. The method, then:
(§2) After labeling, compound concentration was determined using the Pierce Coomassie (Bradford) Protein Assay Kit (Thermo Scientific, #23200).
Briefly, HEK293 cells were seeded on a cover slip glass (Thorlabs, #CG15NH) treated with poly-D-lysine (ThermoFisher, #A3890401) to promote adhesion. Cells were seeded in DMEM (ThermoFisher, #11995073) supplemented with 10% fetal bovine serum (FBS). After 24 hours, cells were washed with PBS and compounds (1 μM) were added in 100% DMEM without FBS. A control sample using 100% DMEM without added compound was also included. After 3 hours and 18 hours of incubation, cells were washed 3 times with PBS. […] Cells were then washed 3 times with PBS and fixed using 4% formalin for 30 minutes. Cover slips were mounted using ProLong Glass Antifade Mountant (ThermoFisher, #P36980). Confocal imaging was conducted using a Zeiss LSM800 laser scanning confocal microscope (Carl Zeiss Microscopy GmbH, Oberkochen, Germany) equipped with 2 GaAsP and one Airyscan detector and Zen Blue Edition software (Carl Zeiss Microscopy GmbH, version 2.5). Confocal images were taken with the PlanApo x63 Oil NA 1.4 objective. […] Lysotracker Red DND-99 was excited using a 561 nm diode laser at 2.60% (both 3-hour and 18-hour samples) and detected at wavelengths 575-700 nm. For each sample, a Z-stack was recorded with an interval of 0.270 μm (3-hour samples) or 0.170 μm (18-hour samples). […]

For assay [5], the target named is T5, vimentin (endogenous, in mouse gastrocnemius muscle connective tissue cells) (mouse, UniProt P20152 2-466).
T5 construct: whole, on cells; Intracellular filament protein, inside the cells and not on their surface
The experiment in a line: confocal imaging of sections of mouse gastrocnemius muscle 18 hours after intramuscular injection of 8 µg ATTO 488 labelled compound; the filing reads the filaments as vimentin; no vimentin co-stain on the sheet. The method, then: as §2
Two 12-week-old female BALB/c mice were allocated for injection with either anti-vimentin-nanobody-FSD1 (type 1 compound, n=1) or anti-vimentin-nanobody (n=1). During anaesthesia, the right hind limb was shaved to expose the calf muscles. A single dose of 8 μg, fluorescently labeled compound was administered intramuscularly in a volume of 5 μl in the gastrocnemius muscle. Mice received a subcutaneous injection of pain relief (Carprofen 5 mg/kg) to counter any pain resulting from tension in the muscle. Eighteen hours after injection, the gastrocnemius muscle was dissected and immersion-fixed in 4% formaldehyde. The gastrocnemius muscle was ethanol dehydrated, embedded in paraffin, and sectioned at 4 μm thickness using a microtome. Sections were left unstained and mounted with DAPI containing mountant (#P36962, ProLong Diamond Antifade Mountant with DAPI) on microscope slides. […] DAPI was excited using a 405 nm diode laser at 1.00% and detected at wavelengths […]. For each sample, a Z-stack was recorded with an interval of 0.190 μm. […]

Chain of TNFα (Tumor Necrosis Factor alpha) (P01375 77-233 limits assumed): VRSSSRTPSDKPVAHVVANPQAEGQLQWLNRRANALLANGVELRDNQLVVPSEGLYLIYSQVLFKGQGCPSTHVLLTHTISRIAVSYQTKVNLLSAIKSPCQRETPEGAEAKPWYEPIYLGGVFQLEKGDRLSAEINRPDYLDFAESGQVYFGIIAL
T5 sequence (P20152 2-466): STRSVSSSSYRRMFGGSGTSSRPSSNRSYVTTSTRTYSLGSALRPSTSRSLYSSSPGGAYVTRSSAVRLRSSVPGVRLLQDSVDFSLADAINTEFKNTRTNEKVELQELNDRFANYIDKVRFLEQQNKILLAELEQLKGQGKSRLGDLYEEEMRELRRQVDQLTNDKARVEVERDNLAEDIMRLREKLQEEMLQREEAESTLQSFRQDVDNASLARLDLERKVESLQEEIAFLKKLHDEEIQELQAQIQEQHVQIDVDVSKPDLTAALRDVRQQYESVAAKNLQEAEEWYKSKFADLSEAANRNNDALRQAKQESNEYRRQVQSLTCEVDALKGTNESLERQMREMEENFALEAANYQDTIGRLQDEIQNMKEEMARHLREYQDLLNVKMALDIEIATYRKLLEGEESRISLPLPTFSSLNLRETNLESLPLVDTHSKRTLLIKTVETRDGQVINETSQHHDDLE
Chain of VEGF (Vascular Endothelial Growth Factor) (P15692 other isoform, or with tags, fused parts or gaps limits assumed): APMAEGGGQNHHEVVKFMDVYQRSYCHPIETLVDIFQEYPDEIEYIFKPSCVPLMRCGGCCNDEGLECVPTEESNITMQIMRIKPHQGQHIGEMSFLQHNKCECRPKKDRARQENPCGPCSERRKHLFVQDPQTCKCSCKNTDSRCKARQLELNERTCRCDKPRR
T4 sequence (P08670 2-466): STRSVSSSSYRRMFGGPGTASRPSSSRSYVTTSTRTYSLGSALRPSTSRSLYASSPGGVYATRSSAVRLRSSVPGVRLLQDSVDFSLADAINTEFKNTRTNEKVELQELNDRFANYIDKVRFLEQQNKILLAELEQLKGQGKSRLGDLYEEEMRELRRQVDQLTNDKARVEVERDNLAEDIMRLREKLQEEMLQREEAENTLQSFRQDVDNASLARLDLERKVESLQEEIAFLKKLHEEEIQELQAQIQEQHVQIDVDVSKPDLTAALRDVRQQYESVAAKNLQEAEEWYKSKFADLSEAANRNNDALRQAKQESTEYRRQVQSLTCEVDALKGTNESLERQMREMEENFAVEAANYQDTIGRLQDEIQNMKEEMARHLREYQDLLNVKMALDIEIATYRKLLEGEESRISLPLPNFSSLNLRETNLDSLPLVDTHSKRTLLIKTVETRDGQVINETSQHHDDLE

B1: FST315dHBS-mFc (Fc fusion)
chain: GNCWLRQAKNGRCQVLYKTELSKEECCSTGRLSTSWTEEDVNDNTLFKWMIFNGGAPNCIPCKETCENVDCGPGSTCVVDQTNNPRCVCAPDCSNITWKGPVCGLDGKTYRNECALLKARCKEQPELEVQYQGRCKKTCRDVFCPGSSTCVVDQTNNAYCVTCNRICPEPASSEQYLCGNDGVTYSSACHLRKATCLLGRSIGLAYEGKCIKAKSCEDIQCTGGKKCLWDFKVGRGRCSLCDELCPDSKSDEPVCASDNATYASECAMKEAACSSGVLLEVKHSGSCNSISEDTEEEEEDEDQDYSFPISSILEWPRGPTIKPCPPCKCPAPNLLGGPSVFIFPPKIKDVLMISLSPIVTCVVVDVSEDDPDVQISWFVNNVEVHTAQTQTHREDYNSTLRVVSALPIQHQDWMSGKEFKCKVNNKDLPAPIERTISKPKGSVRAPQVYVLPPPEEEMTKKQVTLTCMVTDFMPEDIYVEWTNNGKTELNYKNTEPVLDSDGSYFMYSKLRVEKKNWVERNSYSCSVVHEGLHNHHTTKSFSRTPGK
With B1, the figures for the binding result in assay [1] and in assay [2] were “no binding (tested: 50 nM TNFα)” and “no binding (tested: 25 nM VEGF)”, respectively. For the same molecule, in the assay with myostatin, the “IC50, neutralisation of 1 ng/mL myostatin (pSmad2/3 luciferase reporter, HEK293 cells)” value amounted to 225 pM. For the same molecule, the “IC50, neutralisation of 1 ng/mL activin A (pSmad2/3 luciferase reporter, HEK293 cells)” value in the assay with activin A turned out to be 47 pM. Besides, the “IC50, neutralisation of 1 ng/mL GDF11 (pSmad2/3 luciferase reporter, HEK293 cells)” value in assay [3] is 205 pM.

B2: anti-vimentin-nanobody-FSD1 (VHH)
VHH: QVQLVESGGGLVQSGGSLTLTCAASGFTFSAASMRWVRQVPGKGLEWVATIDGTGANSYYSESAKGRFTISRDNARNTLYLQMNNLKPDDTAVYYCANFGRNYWGKGTQVTVSS
modifications: ATTO 488 fluorescent label, sites not stated
notes: also called anti-vimentin-nb-FSD1; type 1 design compound
As to B2, the binding result in assay [4] and in assay [5] was “binds” each time.
